Measured values taken from publication PMC4974056, “The proposed channel-enzyme transient receptor potential melastatin 2 does not possess ADP ribose hydrolase activity” (eLife, 2016).
“And” between values parts separate entries of the source, which are not always exact repeats. Equal entries are not always repeated. Where two headings read alike, the source gives them in different places. One block for each molecule: values may come before it.

Experiments:
T5L-TRPM2 [1] = target: T1, T5L-TRPM2 (Homo sapiens, UniProt O94759, G984L/INS985E/Y985D); experiment: Excised inside-out patch-clamp recordings, ADPR-dependent channel activation; type: cell-based
Description: (§1) Oocytes isolated from anaesthetized Xenopus laevis were digested with collagenase, injected with 10–70 ng cRNA, and stored at 18°C. Recordings were done 2–3 days after injection.
The tip of the patch pipette was filled to ~1 cm height with 140 mM Na-gluconate, 2 mM Mg-gluconate2, 10 mM HEPES (pH 7.4 with NaOH); free [Ca^2+] ~4 μM. The pipette electrode was placed into a 140-mM NaCl-based solution carefully layered on top. Bath solution contained 140 mM Na-gluconate, 2 mM Mg-gluconate2, 10 mM HEPES (pH 7.1 with NaOH), and either 1 mM EGTA (to obtain 'zero' (~8 nM) Ca^2+) or 1 mM Ca-gluconate2 (to obtain 125 μM free Ca^2+) ([Csanády and Törocsik, 2009]). Na-ADPR was used at final concentrations of 0.32, 1, 3.2, 10, 32, 100, or 1000 μM, and the Na^+ salt of ε-ADPR at 100 μM. Macroscopic TRPM2 currents were recorded at 25°C at a membrane potential of −20 mV. Currents were amplified, filtered at 2 kHz (Axopatch 200B), digitized at 10 kHz (Digidata 1322A), and stored to disk (Pclamp9, Molecular Devices, Sunnyvale, CA, USA).
Dose dependence of ADPR-induced current activation, expressed as the ratio of mean macroscopic currents observed in the presence of various test [ADPR] (I) and 32 (or 100) μM ADPR (Imax) in the same patch, was fitted to the Hill equation (I/Imax = [ADPR]^n/(K^n+[ADPR]^n). Dose dependence of ADPR-activation in the presence of 100 μM ε-ADPR was expressed as the ratio of the currents observed in the presence of various test [ADPR] + 100 μM ε-ADPR (I) and 100 μM ADPR alone (Imax) in the same patch, and was fitted to the Hill equation substituting K' = K(1+[ε-ADPR]/KI) instead of K (K and n fixed to their control values). Macroscopic current decay time courses following removal of ADPR or Ca^2+ were fitted by single exponentials using the method of least squares.

[2] = Spontaneous ADPR degradation at basic pH (TLC and Pi assay, no ADPRase); type: physicochemical
Description: (§2) ADPRase activities of mitochondrial NUDT9, NUDT9H, and the purified chimeric constructs (Chi2, Chi3S, Chi4S) were quantitated by densitometric detection of the AMP product on TLC sheets. The 20-μl reaction mixtures contained 0.1, 0.5 or 1 μM purified protein, 10 mM Na-ADPR (Sigma-Aldrich, St. Louis, MO, USA), 16 mM MgCl2, and 50 mM reaction buffer (RB). The reaction buffers used were: 50 mM MES, pH 6.5 with NaOH (RB1); 50 mM HEPES, pH 7.1 with NaOH (RB2); 50 mM Tris, pH 8.5 with HCl (RB3); RB1 + 100 mM NaCl (RB4); RB2 + 100 mM NaCl (RB5), and RB3 + 100 mM NaCl (RB6). For the enzyme kinetics experiments on NUDT9 and Chi2, aliquots from the reaction mixtures were collected at the indicated time points; 3 independent experiments were performed for both proteins and each condition, and data are presented as mean ± SEM. All incubations were at room temperature (~25°C). For TLC, 1-μl aliquots of reaction mixtures were placed on Polygram SIL G/UV254 plates (Macherey-Nagel, Düren, Germany), dried and developed in 0.2 M NH4HCO3 in ethanol:water 7:3 (vol/vol). Nucleotides were visualized under UV light. Densitometry of nucleotide intensities was done using ImageJ software.
(§3) The ADPRase activities of the same proteins were additionally tested with a more sensitive assay based on colorimetric detection of Pi (Pi assay) liberated from both ADPRase products AMP and R5P by co-applied alkaline phosphatase (AP) ([Rafty et al., 2002]). AP liberates Pi from AMP and R5P, but not from intact ADPR: thus, Pi is produced from hydrolyzed ADPR at a molar ratio of 1:2. In brief, 150-μl reaction volumes containing 5 or 50 nM purified protein, 5–6 U bovine AP, 1 mM Na-ADPR, 16 mM MgCl2, and 50 mM reaction buffer at various pH values (MES 6.5, HEPES 7.1, Tris 8.5, and Tris 9.0) were incubated for 30 min at either 37°C or room temperature. The reaction was stopped and Pi visualized by adding 850 μl coloring solution (6:1 vol/vol ratio mixture of 0.42% ammonium molybdate tetrahydrate in 1N H2SO4 and 10% L-ascorbic acid) followed by incubation for 20 min at 45°C. Optical density was then measured at 820 nm (NanoPhotometer P300, Implen GmbH, Munich, Germany). Coloring solution was freshly made, and standard curve (0.050–2 mM KH2PO4) obtained, daily. Reactions with 1 mM AMP or R5P (instead of ADPR) served as positive controls. All reagents were from Sigma-Aldrich.

T5L-TRPM2-Chi2 = T5L-TRPM2-Chi2 (Homo sapiens, UniProt O94759+Q9BW91, G984L/INS985E/Y985D, form not given); experiment: Excised inside-out patch-clamp recordings, ADPR-dependent channel activation; type: cell-based; settings: current in 1 μM ADPR divided by that in 32 μM ADPR; compared to TRPM2
Excerpt: The noninactivating TRPM5-like pore mutant of TRPM2 (T5L-TRPM2) was contained in the pGEMHE vector ([Tóth and Csanády, 2012]). The NUDT9H domain of TRPM2 was replaced by Chi2A, Chi3 or Chi4 using the native BlpI-site upstream of the domain and an XbaI-site downstream of the Stop-codon in each chimeric construct. Single-base mutations to generate Stop-codons immediately upstream of the hexahistidine tags of Chi3 and Chi4 were then introduced (QuickChange II, Agilent Technologies, Santa Clara, CA, USA), yielding TRPM2-Chi3 and TRPM2-Chi4; TRPM2-Chi2 lacked a His-tag because it was derived from Chi2A.
as §1
The tip of the patch pipette was filled to ~1 cm height with 140 mM Na-gluconate, 2 mM Mg-gluconate2, 10 mM HEPES (pH 7.4 with NaOH); free [Ca^2+] ~4 μM. The pipette electrode was placed into a 140-mM NaCl-based solution carefully layered on top. […] Macroscopic TRPM2 currents were recorded at 25°C at a membrane potential of −20 mV. […]
Dose dependence of ADPR-induced current activation, expressed as the ratio of mean macroscopic currents observed in the presence of various test [ADPR] […]

T5L-TRPM2 [3] = target: T1, T5L-TRPM2; parameters: method as in Tóth and Csanády, 2012; settings: previously established; ref Tóth and Csanády, 2012; read-out: half-saturating concentration; cited from earlier work
[4] = Solubility of recombinant proteins expressed in E.coli; type: physicochemical; settings: for Soluble: expressed in E.coli, Table 1
Description: The soluble proteins (NUDT9 and Chi2) were expressed and purified as previously described for mitochondrial NUDT9 ([Tóth et al., 2014]). In brief, bacterial cultures were grown at 37°C in Luria-Bertani medium supplemented with the appropriate antibiotic and induced with 1 mM isopropyl-β-D-1-thiogalactopyranoside (IPTG) upon reaching OD600 of ~0.7. After 3 hr of incubation, cells were harvested and lysed with sonication in 20 mM Tris (pH 8.5 with HCl) / 200 mM NaCl. The cleared supernatant was incubated with Ni-Sepharose 6 Fast Flow resin (GE Healthcare Hungary, Hungary) for 3 hr under gentle rotation. The resin was then washed with lysis buffer supplemented with 20 mM imidazole, and the protein eluted with a buffer containing 20 mM Tris (pH 8.5 with HCl), 100 mM NaCl, and 400 mM imidazole.
Chi3S, Chi4S and NUDT9H were little soluble to insoluble when expressed at 37°C, the majority of the proteins ending up in inclusion bodies, but gave tractable (~1–5%) soluble fractions when induced with 0.1 mM IPTG at 25°C overnight. NUDT9H was then purified as NUDT9. Chi3S and Chi4S were purified using Strep-Tactin chromatography following the manufacturer’s instructions (IBA GmbH, Göttingen, Germany).

[5] = Enzymatic (ADPRase) activity assay using thin-layer chromatography (TLC); type: biochemical; settings: for ADPRase activity (conversion of ADPR into AMP and R5P, TLC): 1 μM protein, 16 mM Mg2+, 2-hr incubation, pH 6.5, 7.1 and 8.5, absence or presence of 100 mM NaCl; for ADPRase activity (conversion of ADPR into AMP and R5P, TLC) / kcat: 10 mM ADPR, room temperature; for Enzyme: Table 1 summary of ADPRase activity; for kcat: 0.5 μM protein
Description: as §2

[6] = Enzymatic activity assay using colorimetric detection of inorganic phosphate (Pi assay, coupled to alkaline phosphatase); type: biochemical; settings: 5 or 50 nM protein co-applied with 1 mM ADPR and AP, 30 min, pH 6.5-9.0, 37°C or RT
Description: as §3, with “Reactions with 1 mM AMP or R5P (instead of ADPR) served as positive controls. All reagents were from Sigma-Aldrich.” left out
Molecular turnover rates (kcat) for NUDT9 were calculated from the [Pi] released in samples containing 5 nM NUDT9, in which [ADPR] remained >0.9 mM (i.e., saturating [[Perraud et al., 2003]]) throughout the 30-min incubation period, using the equation kcat = 0.5[Pi]released/5 nM/1800 s.

[7] = parameters: method as in Perraud et al., 2001, 2003; settings: ref Perraud et al., 2001, 2003, cited from earlier work

T1 sequence (O94759 whole entry, stated change not applied): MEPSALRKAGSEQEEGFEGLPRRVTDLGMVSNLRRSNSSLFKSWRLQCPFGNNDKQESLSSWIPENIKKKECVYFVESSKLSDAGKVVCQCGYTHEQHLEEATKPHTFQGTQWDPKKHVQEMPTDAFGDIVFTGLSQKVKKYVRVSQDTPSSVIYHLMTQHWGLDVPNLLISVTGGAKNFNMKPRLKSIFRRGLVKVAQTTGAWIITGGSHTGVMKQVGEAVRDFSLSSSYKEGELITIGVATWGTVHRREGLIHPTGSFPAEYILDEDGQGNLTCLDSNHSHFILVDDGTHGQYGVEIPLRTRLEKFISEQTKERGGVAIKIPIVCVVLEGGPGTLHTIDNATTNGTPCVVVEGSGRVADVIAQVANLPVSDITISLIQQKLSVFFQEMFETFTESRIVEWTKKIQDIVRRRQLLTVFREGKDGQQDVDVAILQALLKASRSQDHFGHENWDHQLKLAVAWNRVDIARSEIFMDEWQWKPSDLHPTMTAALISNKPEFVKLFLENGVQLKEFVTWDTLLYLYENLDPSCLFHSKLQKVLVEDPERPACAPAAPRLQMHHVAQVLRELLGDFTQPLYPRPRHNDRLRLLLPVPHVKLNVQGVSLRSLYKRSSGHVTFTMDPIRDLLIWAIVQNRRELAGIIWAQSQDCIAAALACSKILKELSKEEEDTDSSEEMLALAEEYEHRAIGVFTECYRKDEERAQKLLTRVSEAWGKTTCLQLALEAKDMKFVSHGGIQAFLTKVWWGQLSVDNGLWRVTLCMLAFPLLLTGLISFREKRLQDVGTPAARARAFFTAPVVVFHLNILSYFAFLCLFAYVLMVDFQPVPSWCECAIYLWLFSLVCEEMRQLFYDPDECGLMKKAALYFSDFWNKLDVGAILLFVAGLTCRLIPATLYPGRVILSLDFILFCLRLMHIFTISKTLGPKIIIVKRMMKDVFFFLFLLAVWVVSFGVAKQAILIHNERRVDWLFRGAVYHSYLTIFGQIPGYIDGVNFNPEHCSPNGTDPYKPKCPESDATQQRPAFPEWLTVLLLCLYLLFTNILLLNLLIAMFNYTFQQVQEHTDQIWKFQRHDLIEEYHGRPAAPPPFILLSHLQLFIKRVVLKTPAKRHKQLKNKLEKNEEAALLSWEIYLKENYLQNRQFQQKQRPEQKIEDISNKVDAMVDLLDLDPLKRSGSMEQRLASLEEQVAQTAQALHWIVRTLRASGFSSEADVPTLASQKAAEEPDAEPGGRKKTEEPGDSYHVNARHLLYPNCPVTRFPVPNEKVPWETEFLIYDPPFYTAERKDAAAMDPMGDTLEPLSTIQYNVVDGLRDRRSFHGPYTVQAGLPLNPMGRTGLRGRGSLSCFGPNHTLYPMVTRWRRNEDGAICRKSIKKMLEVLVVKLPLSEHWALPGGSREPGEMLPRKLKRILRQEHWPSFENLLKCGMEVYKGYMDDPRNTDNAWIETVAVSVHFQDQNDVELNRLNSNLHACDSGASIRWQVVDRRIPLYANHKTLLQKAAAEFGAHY
Sequence of T5L-TRPM2-Chi2 (O94759 1-1353, stated change not applied, one chain of several): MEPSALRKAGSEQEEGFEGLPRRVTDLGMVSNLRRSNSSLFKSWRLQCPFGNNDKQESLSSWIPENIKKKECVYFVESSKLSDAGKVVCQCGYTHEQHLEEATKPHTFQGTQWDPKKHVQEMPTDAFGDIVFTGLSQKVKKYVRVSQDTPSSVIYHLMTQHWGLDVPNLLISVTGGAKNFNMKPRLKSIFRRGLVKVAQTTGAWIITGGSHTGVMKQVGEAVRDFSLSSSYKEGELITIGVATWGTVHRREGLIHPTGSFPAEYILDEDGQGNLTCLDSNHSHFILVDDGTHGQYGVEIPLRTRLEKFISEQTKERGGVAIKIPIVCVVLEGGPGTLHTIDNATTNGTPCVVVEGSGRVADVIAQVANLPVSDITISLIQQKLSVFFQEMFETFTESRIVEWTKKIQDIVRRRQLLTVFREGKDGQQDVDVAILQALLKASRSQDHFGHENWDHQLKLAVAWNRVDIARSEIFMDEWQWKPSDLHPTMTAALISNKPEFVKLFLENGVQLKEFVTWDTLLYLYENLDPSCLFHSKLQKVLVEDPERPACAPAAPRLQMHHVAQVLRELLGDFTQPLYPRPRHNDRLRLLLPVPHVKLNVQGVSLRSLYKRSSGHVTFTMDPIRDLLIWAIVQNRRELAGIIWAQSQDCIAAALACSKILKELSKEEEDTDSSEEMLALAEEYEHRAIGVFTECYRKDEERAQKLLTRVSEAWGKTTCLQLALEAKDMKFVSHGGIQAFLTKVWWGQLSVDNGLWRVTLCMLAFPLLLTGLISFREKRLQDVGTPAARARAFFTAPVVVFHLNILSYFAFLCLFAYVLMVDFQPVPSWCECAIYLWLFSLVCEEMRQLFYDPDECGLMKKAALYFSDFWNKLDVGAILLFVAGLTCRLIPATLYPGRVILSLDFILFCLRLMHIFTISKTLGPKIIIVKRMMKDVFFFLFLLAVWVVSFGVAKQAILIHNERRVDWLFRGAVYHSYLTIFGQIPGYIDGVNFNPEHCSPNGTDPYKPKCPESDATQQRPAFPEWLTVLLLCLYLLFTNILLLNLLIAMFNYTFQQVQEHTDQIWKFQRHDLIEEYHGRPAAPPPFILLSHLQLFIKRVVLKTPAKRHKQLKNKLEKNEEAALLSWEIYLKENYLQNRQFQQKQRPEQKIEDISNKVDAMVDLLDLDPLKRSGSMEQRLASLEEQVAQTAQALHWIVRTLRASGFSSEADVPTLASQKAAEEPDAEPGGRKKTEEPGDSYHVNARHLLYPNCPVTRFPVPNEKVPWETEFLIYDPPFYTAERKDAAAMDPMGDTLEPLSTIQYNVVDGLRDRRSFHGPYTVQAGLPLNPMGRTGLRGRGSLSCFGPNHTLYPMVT

n (Hill slope for ADPR binding) (T5L-TRPM2 [1]; Figure 8B): 1.3±0.1 | EC50 (T5L-TRPM2 [1]; inside-out patches from Xenopus laevis oocytes, saturating Ca2+, −20 mV, Hill fit (Figure 7H), read-out: K1/2 for ADPR-induced current activation): 1300 ± 100 nM | spontaneous hydrolysis of applied ADPR (Pi assay) ([2]; 1 mM ADPR, 30 min, with AP, with or without Chi4S or NUDT9H): ~ 1% | spontaneous degradation ([2]; 25°C and pH 8.5, 20 min): ~ 0.3% | time constant for spontaneous ADPR hydrolysis ([2]; 25°C and pH 8.5, assuming exponential decay): ~ 100 hr | decay time constant of spontaneous degradation ([2]; 25°C, pH 8.5): about 100 h | spontaneous degradation ([2]; 25°C, pH 8.5, 2 hr): ~ 2% | ADPR degraded spontaneously ([2]; 25°C, pH 8.5, 24 hr): ~ 20% | spontaneous degradation ([2]; 37°C and pH 9, 30 min): ~ 1% | AMP which forms spontaneously ([2]; 20 min, pH 8.5, 10 mM ADPR): ~ 30 μM | stability ([2]; neutral or slightly acidic pH): inherently stable | Fractional activation by 1 μM ADPR (T5L-TRPM2-Chi2): reduced
Molecule: Nc1ncnc2c1ncn2C1OC(COP(=O)(O)OP(=O)(O)OCC2OC(O)C(O)C2O)C(O)C1O (centres unmarked) [ADPR, adenosine 5'-diphosphoribose]
EC50 (T5L-TRPM2 [3]): 1000 nM

Enzyme [5]: No
Molecule: NUDT9H: isolated C-terminal cytosolic NUDT9-homology domain of TRPM2, recombinant, hexahistidine tag
stability of purified soluble preparation ([4]; 4°C): precipitated overnight at 4 °C | Soluble [4]: No^¶ | ADPRase activity (conversion of ADPR into AMP and R5P, TLC) [5]: failed to hydrolyze the nucleotide | Pi release [6]: did not result in any significant Pi release | reported turnover rate ([7]; isolated NUDT9H): ~ 0.1 s^-1 | kcat ([7]; pH 9 and 37°C): ~ 0.06 s^-1 | reported enzymatic activity, lower than that of NUDT9 [7]: about 100 fold

Enzyme [5]: Yes
B1: NUDT9: soluble, Mg2+-dependent mitochondrial ADPR pyrophosphatase, recombinant, C-terminal hexahistidine tag (protein)
chain: ENSHNKARTSPYPGSKVERSQVPNEKVGWLVEWQDYKPVEYTAVSVLAGPRWADPQISESNFSPKFNEKDGHVERKSKNGLYEIENGRPRNPAGRTGLVGRGLLGRWGPNHAADPIITRWKRDSSGNKIMHPVSGKHILQFVAIKRKDCGEWAIPGGMVDPGEKISATLKREFGEEALNSLQKTSAEKREIEEKLHKLFSQDHLVIYKGYVDDPRNTDNAWMETEAVNYHDETGEIMDNLMLEAGDDAGKVKWVDINDKLKLYASHSQFIKLVAEKRDAHWSEDSEADCHAL
modifications: left off: His6, C-terminal, kept
notes: soluble, Mg2+-dependent mitochondrial ADPR pyrophosphatase, recombinant, C-terminal hexahistidine tag
Soluble [4]: Yes | ADPRase activity (conversion of ADPR into AMP and R5P, TLC) [5]: active ADPRases | decrease of kcat from pH 8.5 to 6.5 ([5]; TLC kinetics): ~ 1.4 fold | kcat ([5]; pH 6.5 (RB1)): 6.4 s⁻¹ | kcat ([5]; pH 7.1 (RB2)): 7.6 s⁻¹ | kcat ([5]; pH 8.5 (RB3)): 9 s⁻¹ and 9.0 s⁻¹ | kcat ([7]; previously reported values): ~ 8 s^-1
